“Also recorded” adds a separate entry of the source. Bridge positions count the residues as written; N and C are the ends. Square brackets hold non-standard residues; d marks the D form. Ends that are not written are not given here. Peptide text beside a SMILES is read from it. * marks the point of attachment. FITC = O=C1OC2(c3ccc(O)cc3Oc3cc(O)ccc32)c2ccc(NC(=S)*)cc21; S5 = C=CCCC[C@](C)(N)C(=O)O
Assays:
[1] = target: T1, KCTD11^BTB (Homo sapiens, UniProt Q693B1); experiment: ELISA binding of biotinylated peptides to His-TrxA-KCTD11^BTB; conditions: 0.8 μM biotinylated peptide on streptavidin-coated wells; His-TrxA-KCTD11^BTB 0.4-15.6 μM in PBS; anti-His/HRP read at 490 nm; mean of triplicate experiments
T1 construct: tetrameric BTB domain of KCTD11^BTB (residues 15–116) was generated; thioredoxin A (TrxA); made in house
T1 sequence (Q693B1 15-116 isoform Q693B1-2): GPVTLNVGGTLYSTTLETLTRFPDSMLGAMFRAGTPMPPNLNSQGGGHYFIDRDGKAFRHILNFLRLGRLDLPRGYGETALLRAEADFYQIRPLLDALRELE
Experimental: For ELISA assays, 5 μg/mL streptavidin in phosphate/citrate buffer pH 5.0 was incubated overnight at 37°C for coating. Firstly, wells were coated with 0.8 μM biotinylated Cul3^49-68 peptides in phosphate buffered saline (PBS) 1X for 1 h at room temperature. Binding step was performed with increasing concentrations (0.4, 0.75, 1.5, 3.8, 7.6 and 15.6 μM) of His-TrxA- KCTD11^BTB in PBS 1X. His-TrxA was used as negative control in the same concentrations. As blocking solution 3% gelatine, 0.05% Tween-20 in PBS 1X was used for 1 h at 37°C. Washes were executed with PBS 1X. To reveal the occurred interaction mouse anti-His monoclonal antibody was incubated in 1:1000 dilution at room temperature for 2 h; then, horseradish peroxidase-conjugated anti-mouse antibody (Pierce) was diluted 1:10000 in 1% gelatin, PBS 1X and incubated at 20°C for 1 h. The colorimetric reaction has been carried out with SIGMAFAST OPD reagent (Sigma Aldrich), according to the manufacturer’s instructions. Finally, a Model 680 Microplate Reader (Bio-Rad, Hercules, CA-USA) has been used for readings at 490 nm; data were processed by a Microplate Manager 5.2 program. The reported data are mean values of triplicate experiments.

[2] = Serum stability followed by LC-MS; type: in vitro ADME; conditions: 25% human serum, 37°C, peptide 0.3 μM, time points 0, 60, 120, 180, 360 and 900 min, TFA precipitation, LC-MS read-out, triplicate
Experimental: Human serum (Sigma Aldrich-Italy) was centrifuged at 13000 rpm for 10 min to remove lipids;the supernatant was collected and incubated at 37°C for at least 15 min. The assay started upon the addition of the peptides to the 25% serum for a final peptide concentration of 0.3 μM.
200 μL aliquots of the samples were taken after the following time points: 0, 60, 120, 180, 360 and 900 min. The aliquots were mixed with 100 μL of 15% TFA and incubated at 4°C for at least 15 min to induce the precipitation of the serum proteins. The supernatants were collected for each sample after centrifugation at 13000 rpm for 10 min and stored at -20°C.
The serum stability of peptides was followed by LC-MS analysis. using a Phenomenex Jupiter C4 (150 × 2 mm; 5 μm; 300 Å) and a method consisting of an isocratic step with H2O (0.1% TFA)/CH3CN (0.1% TFA) (70:30) for 10 min and a linear gradient of H2O (0.1% TFA)/CH3CN (0.1% TFA) from 30 to 80% of CH3CN (0.1% TFA) in 20 min at flow rate of 200 μL/min.
The assays were performed in triplicate.

[3] = Human serum (Sigma Aldrich-Italy), 25% serum; conditions: 37°C, up to 900 min
[4] = target: T2, His-TrxA-KCTD11^BTB (UniProt Q693B1-2 15-116); experiment: fluorescence polarisation; 2 uM FITC-peptide, KCTD11^BTB added at increasing concentration (0.1-15 uM in the methods; 0.1 nM to 20 uM in the legend); KCTD11^BTB concentration as monomer; triplicates; conditions: both partners purified
T2 construct: KCTD11, folded BTB region of the long form (isoform 2, UniProt Q693B1-2); residues 15-116 are stated for KCTD11^BTB in the modelling paragraph; numbers count on: the long form (isoform 2); The tags are named and used for detection in the ELISA; also called recombinant KCTD11^BTB; BTB of the tetrameric KCTD11; source: recombinant fusion protein with thioredoxin A, expressed and purified as …
T2 sequence (looked up): T1 sequence (Q693B1 15-116 isoform Q693B1-2)

[5] = target: T3, KCTD5^BTB (UniProt Q9NXV2 44-145); experiment: fluorescence polarisation; 1 uM FITC-Cul3^49-68LA, KCTD5^BTB over 0.1 nM to 5 uM; triplicates; conditions: both partners purified
T3 construct: KCTD5, folded BTB domain, residues 44-145; also called BTB of the pentameric KCTD5; pentameric KCTD5^BTB; source: recombinant from the pET28/KCTD5^BTB plasmid, expressed and purified as elsewhere reported [33, 34]
T3 sequence (Q9NXV2 44-145): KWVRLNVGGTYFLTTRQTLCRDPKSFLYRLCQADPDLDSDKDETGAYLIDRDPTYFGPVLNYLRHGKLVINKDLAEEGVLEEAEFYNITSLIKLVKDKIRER

With “Cul3^49-68AA: non-stapled variant of Cul3^49-68 in which Tyr58 and Tyr62 were replaced with Ala residues (NSGLSFEELARNAATMVLHK-NH2; not fully specified (N-terminus))” the “Binding to recombinant KCTD11^BTB, qualitatively checked by ELISA” value [1] was “No relevant binding; also recorded: completely unable to bind KCTD11^BTB”.

For `CSCC[C@H](NC(=O)[C@@H](NC(=O)[C@H](Cc1ccc(O)cc1)NC(=O)[C@H](C)NC(=O)[C@H](CC(N)=O)NC(=O)[C@H](CCCNC(=N)N)NC(=O)[C@H](Cc1ccc(O)cc1)NC(=O)[C@]1(C)CCCC=CCCC[C@](C)(NC(=O)[C@H](CC(C)C)NC(=O)CNC(=O)[C@H](CO)NC(=O)[C@H](CC(N)=O)NC(C)=O)C(=O)N[C@@H](Cc2ccccc2)C(=O)N[C@@H](CCC(=O)O)C(=O)N[C@@H](CCC(=O)O)C(=O)N1)[C@@H](C)O)C(=O)N[C@H](C(=O)N[C@@H](CC(C)C)C(=O)N[C@@H](Cc1c[nH]cn1)C(=O)N[C@@H](CCCCN)C(N)=O)C(C)C` [Cul3^49-68SL] (Ac-NSGL[S5]FEE[S5]YRNAYTMVLHK-NH2; staple 5-9), the “Estimate t1/2 in serum” value [2] was about 7 h.

In the case of Ac-NSGLSFEELYRNAYTMVLHK-NH2, the cleaved bond [3] is reported as “Tyr58-Arg59, major” and the fragment found [3] is reported as “NAYTMVLHK-NH 2; also recorded: Ac-NSGLSFEELYR”.

In the case of “Ac-NSGLSFEELYRNAYTMVLHK-NH2 [Cul3^49-68]”, the half-life at 0.3 μM ([2]; read-out: Estimate t1/2 in serum (converted)) is reported as 7 h.

Work on {FITC}-NSGLSFE[S5]LYR[S5]AYTMVLHK-NH2 (staple 8-12) [FITC-Cul3^49-68EN] yielded a Kd [4] of 0.62 µM.

B1: FITC-Cul3^49-68 (peptide)
peptide: {FITC}-NSGLSFEELYRNAYTMVLHK-NH2
notes: Cullin 3 (Cul3), first part of the peptide 49-68; Cullin 3 (Cul3), second part of the peptide 49-68; also called wild-type peptide; source: synthetic peptide (solid phase, Fmoc), RP-HPLC purified
Molecule B1 has a Kd [4] of 0.497 µM.

Molecule {FITC}-NSGLSFEE[S5]YRN[S5]YTMVLHK-NH2 (staple 9-13) [FITC-Cul3^49-68LA] has a Kd [4] of 0.305 µM and a Kd [5] of 0.097 µM.

— publication PMC4388676 (PLoS ONE, 2015)
